The test system of data set [1] is VchCAST RNA-guided transposition machinery (E. coli BL21(DE3) host, lacZ target). The data set is described as follows: relative integration efficiency (T-RL orientation) vs wild-type transposon end (log2 (normalized fold change)); transposon end mutated: right end (5 bp flank + 75 bp right end); higher = more efficient transposition. Summed up:
(§1)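 In E. coli BL21(DE3), a T7-driven effector plasmid was paired with a pUC57 mini-transposon donor containing 1549 left-end or 1849 right-end barcoded transposon variants. Cells grew on plates with 0.1 mM IPTG at 37°C for 18 h. Relative integration efficiency was derived from Illumina reads of genomic integration junctions against input plasmids, as a log-transformed output/input barcode fold change normalised to reference barcodes.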

The test system is the same in data set [2]. The data set is described as follows: relative integration efficiency (T-LR orientation) vs wild-type transposon end (log2 (normalized fold change)); transposon end mutated: right end (5 bp flank + 75 bp right end); higher = more efficient transposition. Summed up: as §1

± gives the standard deviation of the averaged measurements.

As for “ACATTTGTCGATACAACCATAAAATGATAATTACCACCCATAAATTGATAATTATCACACCCATTTAACTATAACGCTCTGATCATAGTCAGACCAACATTGCTACGACCCGTATTCGCACCGACAC”, the “relative integration efficiency (log2)” value in data set [1] was -1.12 ± 0.076; in data set [2] it was 1.62 ± 0.092.

With “ACATTTGTCGATACAACCATAAAATGATAATTACCACCCATACATTGATAATTATCACACCCATTTAACTATAACGCTCTGATCATAGTCAGACCAACATTGCTACGACCCGTATTCGCACCGACAC”, the figures for the “relative integration efficiency (log2)” value in data set [1] and in data set [2] were -2.37 ± 0.32 and 0.0639 ± 0.32, respectively.

“ACATTTGTCGATACAACCATAAAATGATAATTACCACCCCTAAATTGATAATTATCACACCCATTTAACTATAACGCTCTGATCATAGTCAGACCAACATTGCTACGACCCGTATTCGCACCGACAC”: the “relative integration efficiency (log2)” value was -3.12 ± 0.048 in data set [1] and -0.156 ± 0.26 in data set [2].

Regarding “ACATTTGTCGATACAACCATAAAATGATAATTACCACCCCTACATTGATAATTATCACACCCATTTAACTATAACGCTCTGATCATAGTCAGACCAACATTGCTACGACCCGTATTCGCACCGACAC”, the “relative integration efficiency (log2)” value in data set [1] is -3.06 ± 0.23; in data set [2], -0.393 ± 0.058.

For “ACATTTGTCGATACAACCATAAAATGATAATTCACCCATAAATTGATAATTATCACACCCCAATTTAACTATAACGCTCTGATCATAGTCAGACCAACATTGCTACGACCCGTATTCGCACCGACAC”, the “relative integration efficiency (log2)” value is -2.26 ± 0.28 in data set [1] and 1.05 ± 0.034 in data set [2].

Turning to “ACATTTGTCGATACAACCATAAAATGATAATTCACCCATCAATTGATAATTATCACACCCCAATTTAACTATAACGCTCTGATCATAGTCAGACCAACATTGCTACGACCCGTATTCGCACCGACAC”, the “relative integration efficiency (log2)” value in data set [1] was -3.3 ± 0.52; in data set [2] it was 0.029 ± 0.092.

Turning to “ACATTTGTCGATACAACCCTAAAATGATAATTACACCCATAAATGGATAATTATCACACCCAATTTAACTATAACGCTCTGATCATAGTCAGACCAACATTGCTACGACCCGTATTCGCACCGACAC”, the figures for the “relative integration efficiency (log2)” value in data set [1] and in data set [2] were -3.17 ± 0.19 and -0.544 ± 0.14, respectively.

As for “ACATTTGTCGATACAACCCTAAAATGATAATTACACCCATAAATGGATAATTATCACCCCCAATTTAACTATAACGCTCTGATCATAGTCAGACCAACATTGCTACGACCCGTATTCGCACCGACAC”, the “relative integration efficiency (log2)” value in data set [1] was -3.44 ± 0.12; in data set [2], -1.16 ± 0.21.

On to “ACATTTGTCGATACAACCCTAAAATGATAATTACACCCATAAATGGATCATTATCACACCCAATTTAACTATAACGCTCTGATCATAGTCAGACCAACATTGCTACGACCCGTATTCGCACCGACAC”, for which the “relative integration efficiency (log2)” value in data set [1] was -4.03 ± 0.13; in data set [2], -1.24 ± 0.25.

As to “ACATTTGTCGATACAACCCTAAAATGATAATTACACCCATAAATGGATCATTATCACCCCCAATTTAACTATAACGCTCTGATCATAGTCAGACCAACATTGCTACGACCCGTATTCGCACCGACAC”, the entries for the “relative integration efficiency (log2)” value in data set [1] and in data set [2] were -4.03 ± 0.42 and -1.4 ± 0.051, respectively.

For “ACATTTGTCGATACAACCCTAAAATGATAATTACACCCATAAATTCATAATTATCACACCCAATTTAACTATAACGCTCTGATCATAGTCAGACCAACATTGCTACGACCCGTATTCGCACCGACAC”, the “relative integration efficiency (log2)” value in data set [1] is -4.55 ± 0.13; in data set [2], -2.19 ± 0.3.

Regarding “ACATTTGTCGATACAACCCTAAAATGATAATTACACCCATAAATTCATAATTATCACCCCCAATTTAACTATAACGCTCTGATCATAGTCAGACCAACATTGCTACGACCCGTATTCGCACCGACAC”, the “relative integration efficiency (log2)” value was -4.67 ± 0.055 in data set [1] and -1.84 ± 0.085 in data set [2].

For the sequence “ACATTTGTCGATACAACCCTAAAATGATAATTACACCCATAAATTCATCATTATCACACCCAATTTAACTATAACGCTCTGATCATAGTCAGACCAACATTGCTACGACCCGTATTCGCACCGACAC”, the “relative integration efficiency (log2)” value in data set [1] is -4.888 ± 0.035; in data set [2] it was -1.06 ± 0.37.

As to “ACATTTGTCGATACAACCCTAAAATGATAATTACACCCATAAATTCATCATTATCACCCCCAATTTAACTATAACGCTCTGATCATAGTCAGACCAACATTGCTACGACCCGTATTCGCACCGACAC”, the “relative integration efficiency (log2)” value was -4.56 ± 0.18 in data set [1] and -1.16 ± 0.18 in data set [2].

“ACATTTGTCGATACAACCCTAAAATGATAATTACACCCATAAATTGATAATTATCACACCCAATTTAACTATAACGCTCTGATCATAGTCAGACCAACATTGCTACGACCCGTATTCGCACCGACAC”: the “relative integration efficiency (log2)” value is -2.1 ± 0.33 in data set [1] and 1.04 ± 0.3 in data set [2].

For “ACATTTGTCGATACAACCCTAAAATGATAATTACACCCATAAATTGATAATTATCACCCCCAATTTAACTATAACGCTCTGATCATAGTCAGACCAACATTGCTACGACCCGTATTCGCACCGACAC”, the figures for the “relative integration efficiency (log2)” value in data set [1] and in data set [2] were -2.33 ± 0.4 and 0.88 ± 0.35, respectively.

For the sequence “ACATTTGTCGATACAACCCTAAAATGATAATTACACCCATAAATTGATCATTATCACACCCAATTTAACTATAACGCTCTGATCATAGTCAGACCAACATTGCTACGACCCGTATTCGCACCGACAC”, the “relative integration efficiency (log2)” value in data set [1] was -3 ± 0.31; in data set [2] it was 0.178 ± 0.16.

“ACATTTGTCGATACAACCCTAAAATGATAATTACACCCATAAATTGATCATTATCACCCCCAATTTAACTATAACGCTCTGATCATAGTCAGACCAACATTGCTACGACCCGTATTCGCACCGACAC”: the “relative integration efficiency (log2)” value was -2.5 ± 0.47 in data set [1] and 0.684 ± 0.37 in data set [2].

Turning to “ACATTTGTCGATCCAACCATAAAATGATAATTACACCCATAAATGGATAATTATCACACCCAATTTAACTATAACGCTCTGATCATAGTCAGACCAACATTGCTACGACCCGTATTCGCACCGACAC”, the “relative integration efficiency (log2)” value in data set [1] was -1.4 ± 0.23; in data set [2] it was 1.38 ± 0.094.

On to “ACATTTGTCGATCCAACCATAAAATGATAATTACACCCATAAATGGATCATTATCACACCCAATTTAACTATAACGCTCTGATCATAGTCAGACCAACATTGCTACGACCCGTATTCGCACCGACAC”, for which the “relative integration efficiency (log2)” value was -2.08 ± 0.19 in data set [1] and 0.888 ± 0.17 in data set [2].

As for “ACATTTGTCGATCCAACCATAAAATGATAATTACACCCATAAATTCATAATTATCACACCCAATTTAACTATAACGCTCTGATCATAGTCAGACCAACATTGCTACGACCCGTATTCGCACCGACAC”, the “relative integration efficiency (log2)” value in data set [1] is -2.45 ± 0.51; in data set [2], 0.641 ± 0.68.

Take “ACATTTGTCGATCCAACCATAAAATGATAATTACACCCATAAATTCATCATTATCACACCCAATTTAACTATAACGCTCTGATCATAGTCAGACCAACATTGCTACGACCCGTATTCGCACCGACAC”: the “relative integration efficiency (log2)” value in data set [1] is -2.47 ± 0.39; in data set [2], 1.38 ± 0.015.

As to “ACATTTGTCGATCCAACCATAAAATGATAATTACACCCATAAATTGATAATTATCACACCCAATTTAACTATAACGCTCTGATCATAGTCAGACCAACATTGCTACGACCCGTATTCGCACCGACAC”, the “relative integration efficiency (log2)” value in data set [1] was -0.969 ± 0.28; in data set [2], 2.2 ± 0.23.

As for “ACATTTGTCGATCCAACCATAAAATGATAATTACACCCATAAATTGATCATTATCACACCCAATTTAACTATAACGCTCTGATCATAGTCAGACCAACATTGCTACGACCCGTATTCGCACCGACAC”, the figures for the “relative integration efficiency (log2)” value in data set [1] and in data set [2] were -1.61 ± 0.25 and 2.167 ± 0.0082, respectively.

For the sequence “ACATTTGTGGATACAACCATAAAACGATAATTACACCCATAAATGGATAATTATCACACCCAATTTAACTATAACGCTCTGATCATAGTCAGACCAACATTGCTACGACCCGTATTCGCACCGACAC”, the “relative integration efficiency (log2)” value in data set [1] is -1.46 ± 0.2; in data set [2], 1.3 ± 0.17.

With “ACATTTGTGGATACAACCATAAAACGATAATTACACCCATAAATGGATCATTATCACACCCAATTTAACTATAACGCTCTGATCATAGTCAGACCAACATTGCTACGACCCGTATTCGCACCGACAC”, the “relative integration efficiency (log2)” value is -1.81 ± 0.3 in data set [1] and 0.737 ± 0.25 in data set [2].

Take “ACATTTGTGGATACAACCATAAAACGATAATTACACCCATAAATTCATAATTATCACACCCAATTTAACTATAACGCTCTGATCATAGTCAGACCAACATTGCTACGACCCGTATTCGCACCGACAC”: the “relative integration efficiency (log2)” value in data set [1] is -2.15 ± 0.21; in data set [2], 0.933 ± 0.13.

For the sequence “ACATTTGTGGATACAACCATAAAACGATAATTACACCCATAAATTCATCATTATCACACCCAATTTAACTATAACGCTCTGATCATAGTCAGACCAACATTGCTACGACCCGTATTCGCACCGACAC”, the entries for the “relative integration efficiency (log2)” value in data set [1] and in data set [2] were -2.23 ± 0.37 and 1.17 ± 0.22, respectively.

As to “ACATTTGTGGATACAACCATAAAACGATAATTACACCCATAAATTGATAATTATCACACCCAATTTAACTATAACGCTCTGATCATAGTCAGACCAACATTGCTACGACCCGTATTCGCACCGACAC”, the “relative integration efficiency (log2)” value was -1.13 ± 0.22 in data set [1] and 2.04 ± 0.26 in data set [2].

On to “ACATTTGTGGATACAACCATAAAACGATAATTACACCCATAAATTGATCATTATCACACCCAATTTAACTATAACGCTCTGATCATAGTCAGACCAACATTGCTACGACCCGTATTCGCACCGACAC”, for which the “relative integration efficiency (log2)” value in data set [1] is -1.43 ± 0.24; in data set [2], 2.1 ± 0.088.

Regarding “ACATTTGTGGATACAACCATAAAATGATAATTACACCCATAAATGGATAATTATCACACCCAATTTAACTATAACGCTCTGATCATAGTCAGACCAACATTGCTACGACCCGTATTCGCACCGACAC”, the “relative integration efficiency (log2)” value in data set [1] is -0.586 ± 0.33; in data set [2] it was 2.14 ± 0.031.

Regarding “ACATTTGTGGATACAACCATAAAATGATAATTACACCCATAAATGGATAATTATCACCCCCAATTTAACTATAACGCTCTGATCATAGTCAGACCAACATTGCTACGACCCGTATTCGCACCGACAC”, the “relative integration efficiency (log2)” value was -1.15 ± 0.23 in data set [1] and 1.55 ± 0.31 in data set [2].

For the origin of these results see the supplement of paper PMC10201428.
